Reference: the nanobody polyreactivity screen of Harvey et al. (2022)

Assay: yeast display, Sf9 membrane polyspecificity reagent, FACS + sequencing; frameworks hold sequencing errors
Method in brief: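 A synthetic nanobody library was expressed on Saccharomyces cerevisiae BJ5465 by galactose induction for 36–48 hours. The library was stained for 1 hour at 4 °C with 10% biotinylated, detergent-solubilized Sf9 membrane reagent and enriched with streptavidin microbeads before FACS. Low and high (top ~1%) gates were set on anti-HA fluorescence for expression and streptavidin fluorescence for reagent binding, and each polyreactivity label reflects the gate of origin.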

Row | Sequence | polyreactivity (PSR sort gate)
1 | QVQLVESGGGLVQAGGTLRLSCAASGRIFSYNAMGWYRQAPGKERELVAAITWRGGNTYYADSVKGRFTISRDNALNTVYLQMNSLQPEDTAVYYCAAQRGRWAPMYFWGQGTQVTVSS | high polyreactivity
2 | QVQLVESGGGLVQAGGTLRLSCAASGRIFTHNAMGWYRQAPGKERELVAAITSGGRTTYADSVKGRFTISRDNAKNTVYLQMNSLKPEDTAVYYCNADTGLGSLDFDKRDYWGQGTQVNVSS | low polyreactivity
3 | QVQLVESGGGLVQAGGTLRLSCAASGRIFTINAMGWYRQAPGKEREFVAAISGSGGTTYYADSVKGRFTISRDNAMNTVYLQMNSLKPEDTAVYYCAVSQSWYWYYASDYWGQGTQVTVSS | low polyreactivity
4 | QVQLVESGGGLVQAGGTLRLSCAASGRIFVYNAMGWYRQAPGKERELVATITSGGSTYYSDSLKGRFTISRDNAKNTLYFQMNSLKPEDTAVYYCAARRWYVHYFAYGYWGQGTQVTVSS | low polyreactivity
5 | QVQLVESGGGLVQAGGTLRLSCAASGRILYLNAMGWYRQAPGKEREFVAAISKSGGSTYYADSVKGRFTISRDNAMNSVYLQMNSLKPEDTAVYYCATRFRSAEYDYWGQGTQVTVSS | low polyreactivity
6 | QVQLVESGGGLVQAGGTLRLSCAASGSIFGSYAMGWYRQAPGKERELVAAISGSGGRTYYADSVKGRFTISRDNAKNTVYVQMNSLKPEDTAVYYCAAAYPRVTYKYGYYWGQGTHVTVSS | high polyreactivity
7 | QVQLVESGGGLVQAGGTLRLSCAASGSIFYYYAMGWYRQAPGKERELVDTISSSSGSTYYADSVKGRFTISRDNAKNTVYLQMISLKPEDTAVYYCAAPLPHRGYYEGYWGQRTQVTVSS | low polyreactivity
8 | QVQLVESGGGLVQAGGTLRLSCAASGSTFGWYAMGWYRQAPGKVREFVAAIRGGGSSTYYADSVKWRFTISRDNAKNSVSLQKNSLKQEVTAVYYCAAVTSQLYGKRYYYWGQGTQGTVSS | high polyreactivity
9 | QVQLVESGGGLVQAGGTLRLSCAASGSTFGYYAMGWYRQAPGKERELVAAISWRGGSTYYADSVKGRFTISRYNANNTVYLQMNSLKPEDTAVYYCAAPVGNYGSFDYWGQGTKVTVSS | low polyreactivity
10 | QVQLVESGGGLVQAGGTLRLSCAASGSTFTDYDMGWYRQAPGQERELVAAITSGGSTNYADSVKGRFTISRDNAKNTVYLQMNSLKPEDTAVYYCAAADADRKYDFWGQGTQVTVSS | low polyreactivity
11 | QVQLVESGGGLVQAGGTLRLSCAASGSTFWRNTMEWYRQAPGKERELVAAITGCGGRTYYADSVKGRFTISRDNAKNTVYLQMNSLKPEDTAVYYCAADGRGVHYDYWGQGSQVTVSS | high polyreactivity
12 | QVQLVESGGGLVQAGGTLRLSCAASGSTSSNNAMGWYRQAPGKARELVADISTNGDSTSYADSVKGRFTISRDNAKNPVYLLMNSLKPEDTAVYYSAASTYVTYWEYDYWGQGTQVTVSS | low polyreactivity
13 | QVQLVESGGGLVQAGGTLRLSCAASGYIFDRNAMGWYRPAPGKERELVAAITKRGGSTYYADSVKGRFTISRDNAKNTVYLQMNSLKPEETAVYYCNALARSSRYDYWGQGTQVTVSS | low polyreactivity
14 | QVQLVESGGGLVQAGGTLRLSCAATGRILHIYAMGWYRQAPGKERELVAVISTGGGDTYYADSVKGRFTISRDNANNTVYLQMNSRKPEDTAVYYCAADGYWAGYGYDYWGQGTQVTVSS | high polyreactivity
15 | QVQLVESGGGLVQAGGTLRLSCAPSGRIFGIYDMGWYRQAPGKERELVADIDVSDGSTYYADSVKGRFTISRDNAKNTVYLQMNSMKPEDTAVYYCNAEDSSRWYDWYLHDYWGQGTQVTVSS | high polyreactivity
16 | QVQLVESGGGLVQAGGTLRLSCAPSGYTFVYNAMGWYRQAPGKEREFVAAISWSGTSTRYADSVKGRFTISRDNAKNTVYLQMNSLKPEDTAVYYCAARRRSAQSGSYNHWGQGTQVTVST | high polyreactivity
17 | QVQLVESGGGLVQAGGTLRLSCAPYGIILYRIGMGWYRQAPGKERELVAAISWSTGSTYYADSEKGRFTISRDNAKNTVYLQMNSLKPEDTAVYYCATDYGGYSFGMYYWGQGTQVTVSS | low polyreactivity
